From patent publication US20130323237A1 (Novartis, published 2013)
Residue numbers refer to the chain shown, from its start.

B1: MOR04496 Fab (Fab, V domains shown)
VH: QVQLVESGGGLVQPGGSLRLSCAASGFTFSSYAISWVRQAPGKGLEWVSSISYSGSSTYYADSVKGRFTISRDNSKNTLYLQMNSLRAEDTAVYYCARMEYWYHLLYMDYWGQGTLVTVSS
VL: DIVLTQSPATLSLSPGERATLSCRASQSIGDNYLAWYQQKPGQAPRLLIYDANNRATGVPARFSGSGSGTDFTLTISSLEPEDFATYYCQQYDDHPLTFGQGTKVEIKR
notes: carries two C-terminal tags (FLAG and 6xHis)
B2: MOR05020 Fab (Fab, V domains shown)
VH: QVQLVESGGGLVQPGGSLRLSCAASGFTFSNHALSWVRQAPGKGLEWVSGIQYDGSNTGYADSVKGRFTISRDNSKNTLYLQMNSLRAEDTAVYYCARYYGYSYMDYWGQGTLVTVSS
VL: DIELTQPPSVSVAPGQTARISCSGDNLGSKYVHWYQQKPGQAPVLVIYADNNRPSGIPERFSGSNSGNTATLTISGTQAEDEADYYCSSYDSNSIRVFGGGTKLTVLG
B3: MOR05022 Fab (Fab, V domains shown)
VH: B2 VH
VL: B2 VL with D91T, S92T, N93S, S94G
B4: MOR05021 Fab (Fab, V domains shown)
VH: B2 VH
VL: B2 VL with S92L, N93D, S94G, I95V
B5: MOR05013 Fab (Fab, V domains shown)
VH: QVQLVESGGGLVQPGGSLRLSCAASGFTFSSYYMSWVRQAPGKGLEWVSGIFFDGETYYADSVKGRFTISRDNSKNTLYLQMNSLRAEDTAVYYCARQQYFDHIDIWGQGTLVTVSS
VL: DIELTQPPSVSVAPGQTARISCGGDSLGGKYVYWYQQKPGQAPVLVIYGDSKRPSGIPERFSGSNSGNTATLTISGTQAEDEADYYCQSYTNALSTVFGGGTKLTVLG
B6: MOR04494 Fab (Fab, V domains shown)
VH: QVQLVESGGGLVQPGGSLRLSCAASGFTFSSYYMSWVRQAPGKGLEWVSNISYDSSDTYYADSVKGRFTISRDNSKNTLYLQMNSLRAEDTAVYYCARQQYFDHIDIWGQGTLVTVSS
VL: B5 VL
notes: as for B1
B7: MOR05011 Fab (Fab, V domains shown)
VH: B5 VH with F53Y, E56S, A60P
VL: B5 VL
B8: MOR05010 Fab (Fab, V domains shown)
VH: B5 VH with D61G
VL: B5 VL
B9: MOR05014 Fab (Fab, V domains shown)
VH: B5 VH with E56T
VL: B5 VL
B10: MOR05015 Fab (Fab, V domains shown)
VH: B5 VH with I51T, E56S
VL: B5 VL
B11: MOR05012 Fab (Fab, V domains shown)
VH: B5 VH with D54T, A60P
VL: B5 VL
B12: MOR04609 Fab (Fab, V domains shown)
VH: QVQLQQSGPGLVKPSQTLSLTCAISGDSVSSNSAAWGWIRQSPGRGLEWLGRIYYRSKWLNDYAVSVKSRITINPDTSKNQFSLQLNSVTPEDTAVYYCARDGGWYIDVWGQGTLVTVSS
VL: DIELTQPPSVSVAPGQTARISCSGDNLGSYYANWYQQKPGQAPVLVIYEDKRPSGIPERFSGSNSGNTATLTISGTQAEDEADYYCQSFDSYHSDYVFGGGTKLTVLG
notes: as for B1
B13: MOR05016 Fab (Fab, V domains shown)
VH: B6 VH
VL: DIELTQPPSVSVAPGQTARISCGGDSLGGKYVYWYQQKPGQAPVLVIYGDSKRPSGIPERFSGSNSGNTATLTISGTQAEDEADYYCQSYDLQSLNIVFGGGTKLTVLG
B14: MOR05018 Fab (Fab, V domains shown)
VH: B6 VH
VL: B13 VL with Q93G, I97L
B15: MOR05017 Fab (Fab, V domains shown)
VH: B6 VH
VL: B13 VL with Q93K, I97V
B16: MOR05019 Fab (Fab, V domains shown)
VH: QVQLVESGGGLVQPGGSLRLSCAASGFTFSNHALSWVRQAPGKGLEWVSVISFDGVKFYADSVKGRFTISRDNSKNTLYLQMNSLRAEDTAVYYCARYYGYSYMDYWGQGTLVTVSS
VL: DIELTQPPSVSVAPGQTARISCSGDNLGSKYVHWYQQKPGQAPVLVIYADNNRPSGIPERFSGSNSGNTATLTISGTQAEDEADYYCQSYDHMLQVFGGGTKLTVLG
notes: also called MOR5019
B17: MOR04497 Fab (Fab, V domains shown)
VH: B2 VH
VL: B16 VL
notes: as for B1
B18: MOR05024 Fab (Fab, V domains shown)
VH: QVQLVQSGAEVKKPGSSVKVSCKASGGTFSSYAISWVRQAPGQGLEWMGNIYPIFGYANYAQKFQGRVTITADESTSTAYMELSSLRSEDTAVYYCARYGQYGQHFSHGGMDVWGQGTLVTVSS
VL: DIQMTQSPSSLSASVGDRVTITCRASQDISISLTWYQQKPGKAPKLLIYGAFSLQSGVPSRFSGSGSGTDFTLTISSLQPEDFATYYCQQFWFEPVTFGQGTKVEIKR
B19: MOR04832 Fab (Fab, V domains shown)
VH: B18 VH
VL: B18 VL with F91Y, W92Y, F93G, E94T, P95S, V96A
notes: as for B1
B20: MOR05027 Fab (Fab, V domains shown)
VH: B18 VH
VL: B18 VL with F93T
B21: MOR05025 Fab (Fab, V domains shown)
VH: B18 VH
VL: B18 VL with E94H
B22: MOR05026 Fab (Fab, V domains shown)
VH: B18 VH
VL: B18 VL with F93S
B23: MOR05023 Fab (Fab, V domains shown)
VH: B18 VH
VL: B18 VL with W92Y, E94H, P95S, V96P
B24: MOR05008 Fab (Fab, V domains shown)
VH: QVQLVQSGAEVKKPGSSVKVSCKASGGTFSSYAISWVRQAPGQGLEWMGGIIPEFGFTNYAQKFQGRVTITADESTSTAYMELSSLRSEDTAVYYCARSGMFYSILFDYWGQGTLVTVSS
VL: DIQMTQSPSSLSASVGDRVTITCRASQDIYNYLNWYQQKPGKAPKLLIYGASSLQSGVPSRFSGSGSGTDFTLTISSLQPEDFAVYYCQQQNDYPLTFGQGTKVEIKR
B25: MOR05009 Fab (Fab, V domains shown)
VH: B24 VH with G50H, I52S
VL: B24 VL
B26: MOR04493 Fab (Fab, V domains shown)
VH: B24 VH with E54D, F57W, T58A
VL: B24 VL
notes: as for B1

Tests used:
[1] = target: T1, recombinant human TSLP (R&D Systems) (human, UniProt Q969D9 29-159); test: SPR (Biacore), biotinylated recombinant human TSLP on SA-chip, Fab as analyte
T1 construct: also called hTSLP; human thymic stromal lymphopoietin
Experimental: A respective amount of biotinylated human serum albumin (HSA) was immobilized on the reference flow cell. […] The Fabs were applied in concentration series of 16-500 nM at a flow rate of 20 μl/min. Association phase was set to 60 s and dissociation phase to 120 s.

[2] = target: T1, recombinant human TSLP (R&D Systems); test: BioVeris electrochemiluminescence screening, Fab in E. coli lysate on biotinylated TSLP coupled to streptavidin beads
Experimental: BEL extracts were diluted in assay buffer (PBS/0.05% Tween20/0.5% BSA) for use in BioVeris screening.

| Binder | binding result [1] | binding result [2] |
| --- | --- | --- |
| B1 | binds |  |
| B2 |  | binds |
| B3 |  | binds |
| B4 |  | binds |
| B5 |  | binds |
| B6 | binds |  |
| B7 |  | binds |
| B8 |  | binds |
| B9 |  | binds |
| B10 |  | binds |
| B11 |  | binds |
| B12 | binds |  |
| B13 |  | binds |
| B14 |  | binds |
| B15 |  | binds |
| B16 |  | binds |
| B17 | binds |  |
| B18 |  | binds |
| B19 | binds |  |
| B20 |  | binds |
| B21 |  | binds |
| B22 |  | binds |
| B23 |  | binds |
| B24 |  | binds |
| B25 |  | binds |
| B26 | binds |  |
